In patent US20050169909A1 (TANOX, published 2005):
Where two headings read alike, the source gives them in different places.

B1: C21 (Fab, V domains shown)
VH: QVQLQQSGAELMKPGASVKISCKTTGYTFSMYWLEWVKQRPGHGLEWVGEISPGTFTTNYNEKFKAKATFTADTSSNTAYLQLSGLTSEDSAVYFCARFSHFSGSNYDYFDYWGQGTSLTVSS
VL: DILLTQSPAILSVSPGERVSFSCRASQSIGTNIHWYQQRTDGSPRLLIKYASESISGIPSRFSGSGSGTEFTLNINSVESEDIADYYCQQSDSWPTTFGGGTKLEIK
notes: also called parent Fab of TES-C21; murine TES-C21 Fab
B2: humanized TES-C21 Fab clone 136 (Fab, V domains shown)
VH: QVQLVQSGAEVMKPGSSVKVSCKASGYTFSMYWLEWVRQAPGHGLEWMGEISPGTFTTNYNEKFKARVTFTADTSTSTAYMELSSLRSEDTAVYYCARFSHFSGSNYDYFDYWGQGTLVTVSS
VL: EIVMTQSPATLSVSPGERATLSCRASQSIGTNIHWYQQKPGQAPRLLIYYASESISGIPARFSGSGSGTEFTLTISSLQSEDFAVYYCQQSDSWPTTFGGGTKVEIK
notes: Retains 5 murine heavy chain framework residues; light chain framework is 100% human; also called Clone ID #136; Humanized clone 136
B3: Anti-IgE CL-2C (antibody, V domains shown)
VH: QVQLVQSGAEVMKPGSSVKVSCKASGYTFSWYWLEWVRQAPGHGLEWMGEIDPGTFTTNYNEKFKARVTFTADTSTSTAYMELSSLRSEDTAVYYCARFSHFSGSNYDYFDYWGQGTLVTVSS
VL: EIVMTQSPATLSVSPGERATLSCRASQSIGTNIHWYQQKPGQAPRLLIYYASESISGIPARFSGSGSGTEFTLTISSLQSEDFAVYYCQQSWSWPTTFGGGTKVEIKT
notes: ATCC PTA-5678; also called MAb 2 (CL-2C); clone 2C
B4: Anti-IgE CL-5I (antibody, V domains shown)
VH: QVQLVQSGAEVMKPGSSVKVSCKASGYTFSMYWLEWVRQAPGHGLEWMGEIDPGTFETNYNEKFKARVTFTADTSTSTAYMELSSLRSEDTAVYYCARFSHFSGSNYDYFDYWGQGTLVTVSS
VL: EIVMTQSPATLSVSPGERATLSCRASQSIGTNIHWYQQKPGQAPRLLIYYASESISGIPARFSGSGSGTEFTLTISSLQSEDFAVYYCQQSWSWPTTFGGGTKVEIKT
notes: ATCC PTA-5680; also called MAb 3 (CL-5I)
B5: Anti-IgE CL-5A (antibody, V domains shown)
VH: QVQLVQSGAEVMKPGSSVKVSCKASGYTFSWYWLEWVRQAPGHGLEWMGEIEPGTETTNYNEKFKARVTFTADTSTSTAYMELSSLRSEDTAVYYCARFSHFSGSNYDYFDYWGQGTLVTVSS
VL: EIVMTQSPATLSVSPGERATLSCRASQSIGTNIHWYQQKPGQAPRLLIYYASESISGIPARFSGSGSGTEFTLTISSLQSEDFAVYYCQQSWSWPTTFGGGTKVEIKT
notes: ATCC PTA-5679; also called MAb 1(CL-5A); clone 5A
B6: murine anti-IgE monoclonal antibody TES-C21 (antibody, V domains shown)
VH: QVQLQQSGAELMKPGASVKISCKTTGYTFSMYWLEWVKQRPGHGLEWVGEISPGTFTTNYNEKFKAKATFTADTSSNTAYLQLSGLTSEDSAVYFCARFSHFSGSNYDYFDYWGQGTSLTVSS
VL: DILLTQSPAILSVSPGERVSFSCRASQSIGTNIHWYQQRTDGSPRLLIKYASESISGIPSRFSGSGSGTEFTLNINSVESEDIADYYCQQSDSWPTTFGGGTKLEIK
notes: Murine parent antibody; also called murine mAb TES-C21; parent TES-C21

What was measured:
[1] = target: T1, recombinant human IgE, SE44 (human, UniProt P01854-1 1-428); assay: ELISA titration of Fab on plate-coated SE44 (Example 6)
T1 construct: The IgE used as antigen in the ELISA screens (coated, or biotinylated); also called monoclonal human IgE (SE44); biotinylated SE44
T1 sequence (P01854 other isoform, or with tags, fused parts or gaps): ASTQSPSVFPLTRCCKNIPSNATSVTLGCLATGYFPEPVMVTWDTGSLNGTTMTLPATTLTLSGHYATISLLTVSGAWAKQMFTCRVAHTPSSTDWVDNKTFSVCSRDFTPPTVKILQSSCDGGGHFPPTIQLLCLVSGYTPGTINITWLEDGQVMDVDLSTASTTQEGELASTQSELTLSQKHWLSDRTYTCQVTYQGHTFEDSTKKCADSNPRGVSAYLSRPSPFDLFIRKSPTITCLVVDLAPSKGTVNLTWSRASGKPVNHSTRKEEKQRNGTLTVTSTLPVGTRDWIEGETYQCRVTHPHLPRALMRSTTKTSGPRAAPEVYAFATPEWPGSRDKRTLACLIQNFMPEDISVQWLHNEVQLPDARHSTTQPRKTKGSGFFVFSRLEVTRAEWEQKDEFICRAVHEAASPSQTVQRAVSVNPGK
Method: (§1) The constructed library was subjected to an ELISA screen for improved binding to the recombinant human IgE, SE44. Clones with binding affinity greater than murine TES-C21 Fab were isolated and sequenced. Clone ID #4, 49, 72, 76, and 136 were further characterized.
(§2) Plates were coated with 0.25 ug/mL (for purified Fab 0.1 ug/ml) SE44 in carbonate coating buffer overnight at 4° C. Coating solution was removed and the plates were blocked with 200 uL/well 3% BSA/PBS for 1 hour at 37° C.

[2] = target: T1, recombinant human IgE, SE44; assay: as above; remark: listed apart in the source
Method: as §1, §2

human IgE [3] = target: T2, human IgE (human, UniProt P01854-1 1-428); assay: relative to parent TES-C21
T2 construct: it may be SE44; also called intact human IgE; biotinylated IgE
T2 sequence (P01854 other isoform, or with tags, fused parts or gaps): as above

human IgE [4] = target: T2, human IgE; assay: soluble receptor assay: inhibition of the binding of biotinylated IgE to plate-coated FcεRI alpha chain (Example 8)
Method: A 96 well assay plate suitable for ELISA was coated with 0.05 mL 0.5 μg/mL FcεRI alpha-chain receptor coating buffer (50 mM carbonate/bicarbonate, pH 9.6) for 12 hours at 4-8° C. The wells were aspirated and 25 μL blocking buffer (PBS, 1% BSA, pH 7.2) was added and incubated for 1 hour at 37° C. In a separate assay plate the samples and reference TES-C21 MAbs were titered from 200 to 0.001 μg/mL by 1:4 dilutions with assay buffer (0.5% BSA and 0.05% Tween 20, PBS, pH 7.2) and an equal volume of 100 ng/mL biotinylated IgE was added and the plate incubated for 2-3 hours at 25° C. The FcεRI—coated wells were washed three times with PBS and 0.05% TWEEN 20 and 50 μL from the sample wells were transferred and incubated with agitation for 30 minutes at 25° C. Fifty/μL/well of 1 mg/mL Streptavidin-HRP, diluted 1:2000 in assay buffer, was incubated for 30 minutes with agitation and then the plate was washed as before. Fifty μL/well of TMB substrate was added and color was developed. The reaction was stopped by adding an equal volume of 0.2 M H₂SO₄ and the absorbance measured at 450 nm.

human IgE [5] = target: T2, human IgE; assay: method not stated at the table (Example 10 lists Biacore analysis); target IgE taken from context

Row | Binder | EC50 (read off the curve) [1] | EC50 (read off the curve) [2] | Fold Increase in Binding Affinity (human IgE [3]) | IC50 (read off the curve) (human IgE [4]) | Kd (human IgE [5])
1 | B1 | ~0.05 µg/mL | ~0.05 µg/mL |  |  | 
2 | B2 | ~0.04 µg/mL |  |  |  | 
3 | B3 |  |  | 417 fold | ~0.3 µg/mL | 1.47 pM
4 | B4 |  |  | 191 fold |  | 3.2 pM
5 | B5 |  |  | 3890 fold |  | 0.158 pM
6 | B6 |  |  |  |  | 614 pM
